Laboratory results as given in patent CN104892754A (INST OF MILITARY VETERINARY ACADEMY OF MILITARY MEDICAL …, dated 2015).

T1: 重组蛋白BontB(B型肉毒毒素轻链) (肉毒梭菌 (Clostridium botulinum), UniProt P10844 1-441)
T1 sequence: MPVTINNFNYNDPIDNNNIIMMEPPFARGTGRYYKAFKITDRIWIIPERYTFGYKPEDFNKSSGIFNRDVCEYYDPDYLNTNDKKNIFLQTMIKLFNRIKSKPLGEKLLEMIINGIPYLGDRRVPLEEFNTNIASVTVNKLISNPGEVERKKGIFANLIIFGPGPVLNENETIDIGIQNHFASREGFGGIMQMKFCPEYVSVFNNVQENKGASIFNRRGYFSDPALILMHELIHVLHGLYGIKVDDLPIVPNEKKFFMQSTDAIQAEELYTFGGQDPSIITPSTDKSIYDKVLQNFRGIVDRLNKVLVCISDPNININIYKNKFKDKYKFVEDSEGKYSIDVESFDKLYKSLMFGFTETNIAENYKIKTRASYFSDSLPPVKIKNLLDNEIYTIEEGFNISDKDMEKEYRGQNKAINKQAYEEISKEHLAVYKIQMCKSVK

B1: 3A-scFv (scFv)
scFv: EVQLLESGGGLVQPGGSLRLSCAASGFTFSSYAMSWVRQAPGKGLEWVSNISSNGNATAYADSVKGRFTISRNNSKNTLYLQMNSLRAEDTAVYYCAKYTYAFDYWGQGTLVTVSSGGGGSGGGGSGGGGSTDIQMTQSPSSLSASVGDRVTITCRASQSISSYLNWYQQKPGKAPKLLIYYASNLQSGVPSRFSGSGSGTDFTLTISSLQPEDFATYYCQQDSYTPSTFGQGTKVEIKRAAAHHHHHHGAAEQKLISEEDLNGAA
B2: 4C-scFv (scFv)
scFv: EVQLLESGGGLVQPGGSLRLSCAASGFTFSSYAMSWVRQAPGKGLEWVSGISPMGTRTSYADSVKGRFTISRDNSKNTLYLQMNSLRAEDTAVYYCAKNANGFDYWGQGTLVTVSSGGGGSGGGGSGGGGSTDIQMTQSPSSLSASVGDRVTITCRASQSISSYLNWYQQKPGKAPKLLIYRASVLQSGVPSRFSGSGSGETDFTLTISSLQPEDFATYYCQQRSRPPITFGQGTKVEIKRAAAHHHHHHGAAEQKLISEEDLNGAA
B3: 抗B型肉毒毒素酶活性的人源单链抗体2F-scFv (scFv)
scFv: EVQLLESGGGLVQPGGSLRLSCAASGFTFSSYAMSWVRQAPGKGLEWVSSIASTGSNTAYADSVKGRFTISRNNSKNTLYLQMNSLRAEDTAVYYCAKGTGTFDYWGQGTLVTVSSGGGGSGGGGSGGGGSTDIQMTQSPSSLSASVGDRVTITCRASQSISSYLNWYQQKPGKAPKLLIYTASYLQSGVPSRFSGSGSGTDFTLTISSLQPEDFATYYCQQATTSPYTFGQGTKVEIKRAAAHHHHHHGAEQKLISEEDLNGAA

Each binder was assayed against T1, 重组蛋白BontB(B型肉毒毒素轻链).

Binder | Ka
B1 | 535000 M⁻¹
B2 | 438000 M⁻¹
B3 | 1.15e+06 M⁻¹
